Laboratory results reported in patent US20140356285A1, “COMPOSITIONS AND METHODS RELATED TO TISSUE TARGETING” (THE BOARD OF REGENTS OF THE UNIVERSITY OF TEXAS SYSTEM, priority 2011, published 2014).
One block for each molecule: values may come before it. No end group written: not given here. *: point of attachment. Biotin = O=C1N[C@H]2[C@H](CS[C@H]2CCCCC(=O)*)N1

T1: prohibitin (Homo sapiens, UniProt P35232)
T1 construct: gift from Dr. Srikumar Chellappan (H. Lee Moffitt Cancer Center & Research Institute)
T1 sequence (P35232 1-272): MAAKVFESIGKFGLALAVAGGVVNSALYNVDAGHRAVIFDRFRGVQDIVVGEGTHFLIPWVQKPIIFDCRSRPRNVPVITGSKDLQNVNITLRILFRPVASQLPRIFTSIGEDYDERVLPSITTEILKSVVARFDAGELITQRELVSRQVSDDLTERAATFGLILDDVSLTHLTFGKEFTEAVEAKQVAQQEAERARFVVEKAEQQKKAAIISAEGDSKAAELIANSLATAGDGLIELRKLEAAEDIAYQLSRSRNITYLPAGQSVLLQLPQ

T2: PR-3 (Homo sapiens, UniProt P24158)
T2 construct: purchased Sigma
T2 sequence (P24158 28-248 limits assumed): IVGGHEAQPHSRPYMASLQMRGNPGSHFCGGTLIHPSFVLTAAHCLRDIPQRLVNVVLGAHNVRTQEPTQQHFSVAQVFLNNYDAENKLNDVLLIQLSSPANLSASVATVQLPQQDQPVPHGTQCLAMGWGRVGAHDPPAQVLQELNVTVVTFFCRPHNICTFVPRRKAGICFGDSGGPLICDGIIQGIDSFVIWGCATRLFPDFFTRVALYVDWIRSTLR

T3: ANXAS (Homo sapiens, UniProt P08758)
T3 construct: purchased AmProx
T3 sequence (P08758 1-320): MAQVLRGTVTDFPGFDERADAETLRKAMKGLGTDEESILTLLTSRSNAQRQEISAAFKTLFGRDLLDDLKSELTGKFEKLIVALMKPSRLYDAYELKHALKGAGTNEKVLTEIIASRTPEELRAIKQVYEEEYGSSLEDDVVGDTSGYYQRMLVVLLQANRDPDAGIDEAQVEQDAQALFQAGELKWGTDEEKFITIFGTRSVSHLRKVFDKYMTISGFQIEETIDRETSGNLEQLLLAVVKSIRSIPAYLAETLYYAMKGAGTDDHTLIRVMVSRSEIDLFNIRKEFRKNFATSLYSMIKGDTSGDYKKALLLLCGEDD

T4: His6-ANXA5 (UniProt P08758 1-320, limits assumed)
T4 construct: also called ANXAS (so in the source); control His6-ANXAS; not shown: His6 tag
T4 sequence (looked up): T3 sequence (P08758 1-320)

B1: negative control peptide CARAC (peptide)
peptide: Biotin-CARAC
modifications: also: cyclized, type and places not given here
notes: Negative control on monoavidin beads; also called control elution peptide
B2: human leukocyte proteinase-3 (PR-3) (enzyme)
chain: IVGGHEAQPHSRPYMASLQMRGNPGSHFCGGTLIHPSFVLTAPHCLRDIPQRLVNVVLGAHNVRTQEPTQQHFSVAQVFLNNYDAENKLNDILLIQLSSPANLSASVTSVQLPQQDQPVPPHGTQCLAMGWGRVGAHDPPAQVLQELNVTVVTFFCRPHNICTFVPRRKAGICCFGDSGGPLICDGIIQGIDSFVIWGCATRLFPDFFTRVAYDWIRSTLR
notes: In the ELISAs the PR-3 was bought (Sigma); also called active PR-3; endogenous PR-3
B3: GST-prohibitin (other, UniProt P35232 1-272, looked up)
chain: T1 sequence (P35232 1-272)
notes: Gift from Dr. Srikumar Chellappan; also called recombinant GST-prohibitin; glutathione S-transferase (GST)-conjugated protein; not shown: glutathione S-transferase (GST) tag

How the values were obtained:
prohibitin = molecular target: T1, prohibitin; assay: Phage binding assay on immobilized prohibitin; conditions: increasing concentrations of synthetic peptide (FIG. 3B)
Description: (§1) Phage Binding Assays. Binding of targeted phage to immobilized candidate receptors was evaluated as described (Kolonin et al., 2006b). Micro-wells of 96-well plates were blocked with phosphate-buffered saline (PBS) containing 3% BSA, washed, and incubated with 10^9 TU of targeted phage. Inhibition of phage binding was performed in the presence of increasing concentrations of synthetic peptides, as indicated. For phage display screening on immobilized prohibitin, 10^9 TU of phage clones recovered from the second round of in vivo selection were incubated ON with 1 μg of immobilized recombinant GST-prohibitin. Bound phage were recovered by infection of host bacteria (E. coli K91 Kan).

[1] = test system: cells of mouse WAT vasculature; conditions: previous research (Kolonin et al., 2004); cited from earlier work
PR-3 = molecular target: T2, PR-3; assay: Phage binding competition assay, targeted phage and cognate synthetic peptide; conditions: FIG. 4E
Description: as §1

ANXA2 = molecular target: T5, ANXA2 (Homo sapiens, UniProt P07355); assay: Capture of GST-prohibitin with immobilized His6-ANXA2; assay type: binding; conditions: recombinant GST-conjugated protein (FIG. 3E)
T5 construct: purchased AmProx
Description: (§2) Protein Binding Assays. Titration of anti-peptide antibodies was performed on Maxisorb Immunoplates (Nunc) coated with 1 μg/mL of peptides or proteins. Incubation with primary antibodies was followed by signal detection with goat anti-rabbit HRP-conjugated IgG (Sigma-Aldrich; St. Louis, Mo.) and 3, 3′,5,5′-tetramethylbenzidine (TMB) (Calbiochem). To evaluate protein-protein interactions, the inventors performed ELISA on 96-well plates coated with 1 μg/mL of recombinant candidate receptors, as indicated. Blocking of exposed non-specific binding sites was performed with PBS containing either 2% gelatin or 1% BSA, as indicated. Ligand candidates were added to the wells at different concentrations, as indicated. Specific binding was detected by incubation with appropriate primary and secondary antibodies. For capture experiments, immobilized His6-ANXA2 and ANXAS were incubated with recombinant GST-prohibitin. Protein interaction, assessed by immunoblotting with anti-GST antibody, was detected with anti-rabbit or anti-goat secondary alkaline phosphatase-conjugated polyclonal antibodies.

ANXAS = molecular target: T3, ANXAS; assay: Capture of GST-prohibitin with immobilized control His6-ANXAS; assay type: binding; conditions: recombinant GST-conjugated protein (FIG. 3E)
Description: as §2

[2] = molecular target: B2; assay: affinity capture on monoavidin beads loaded with biotinylated peptide, from a membrane extract of human bone marrow cells; SDS-PAGE
Description: (B) Liquid chromatography-mass spectrometry (LC-MS/MS) of peptides matching the candidate receptor PR-3. Peptides identified are underlined. […] Arrow: ˜35 kDa band specific to the RAGE-like peptides.

BMPRIA-Fc = molecular target: T6, BMPRIA-Fc (UniProt P36894 24-152); assay: ELISA on immobilized PR-3
T6 construct: Bought (R&D Systems); control protein; also called Fc-BMPRIA; not shown: Fc tag

BSA = molecular target: T7, BSA (bovine, UniProt P02769 25-607); assay: ELISA on immobilized PR-3
T7 construct: Control protein added to immobilized PR-3; also called bovine serum albumin; control protein

His6-ANXA5 = molecular target: T4, His6-ANXA5; assay: capture of GST-prohibitin on immobilized His6-annexin, immunoblot with anti-GST antibody

T6 sequence (P36894 24-152): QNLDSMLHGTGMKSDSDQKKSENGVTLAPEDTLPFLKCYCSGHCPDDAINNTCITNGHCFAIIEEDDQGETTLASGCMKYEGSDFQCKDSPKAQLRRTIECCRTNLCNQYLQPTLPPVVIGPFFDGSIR
T7 sequence (P02769 25-607 limits assumed): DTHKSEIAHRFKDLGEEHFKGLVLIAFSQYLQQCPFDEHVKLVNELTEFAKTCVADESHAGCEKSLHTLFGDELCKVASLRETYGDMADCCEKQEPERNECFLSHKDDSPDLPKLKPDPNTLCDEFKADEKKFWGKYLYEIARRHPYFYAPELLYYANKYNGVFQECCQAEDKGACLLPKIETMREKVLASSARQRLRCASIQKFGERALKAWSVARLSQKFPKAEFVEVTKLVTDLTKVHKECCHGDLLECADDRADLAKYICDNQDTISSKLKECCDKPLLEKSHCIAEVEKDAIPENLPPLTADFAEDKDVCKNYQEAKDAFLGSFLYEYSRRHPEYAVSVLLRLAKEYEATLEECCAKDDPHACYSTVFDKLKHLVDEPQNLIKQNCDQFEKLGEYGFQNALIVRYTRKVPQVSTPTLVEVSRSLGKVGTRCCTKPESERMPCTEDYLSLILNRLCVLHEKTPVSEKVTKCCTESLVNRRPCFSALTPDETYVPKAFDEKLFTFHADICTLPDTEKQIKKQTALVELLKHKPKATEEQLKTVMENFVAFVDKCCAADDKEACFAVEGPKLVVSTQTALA
T5 sequence (P07355 whole entry): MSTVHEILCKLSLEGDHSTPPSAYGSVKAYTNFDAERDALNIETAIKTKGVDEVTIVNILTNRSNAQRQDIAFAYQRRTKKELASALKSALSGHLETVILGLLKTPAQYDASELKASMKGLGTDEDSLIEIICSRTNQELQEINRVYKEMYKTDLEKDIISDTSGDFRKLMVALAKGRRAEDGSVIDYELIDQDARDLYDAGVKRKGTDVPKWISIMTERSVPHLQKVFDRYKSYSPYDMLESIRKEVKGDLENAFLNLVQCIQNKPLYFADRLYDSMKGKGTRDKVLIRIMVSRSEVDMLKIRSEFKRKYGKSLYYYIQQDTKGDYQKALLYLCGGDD

Molecule: CKGGRAKDC
- inhibition of CKGGRAKDC-displaying phage binding to prohibitin by synthetic peptide (prohibitin): specifically inhibited in a concentration-dependent manner
- localization and internalization in WAT vasculature [1]: localized to and internalized by cells of mouse WAT vasculature

- inhibition of CWELGGGPC-phage binding by synthetic peptide (PR-3): specifically inhibited
Molecule: CWELGGGPC

- binding of prohibitin to ANXA2 (ANXA2): binds to ANXA2
- binding of prohibitin to control protein ANXAS (ANXAS): not to the control protein ANXAS
Molecule: prohibitin: recombinant glutathione S-transferase (GST)-conjugated prohibitin

Molecule: B1
- binding result [2]: no binding

Molecule: B2
- binding result (BMPRIA-Fc): no binding
- binding result (BSA): no binding

Molecule: B3
- binding result (His6-ANXA5): no binding
